CN117820479A (BEILAI PHARMACEUTICAL CO LTD, dated 2024)
One block for each molecule: values may come before it.

How the values were obtained:
[1] = molecular target: IL-17RA and IL-17RC co-expressed on 293F-IL-17RA-IL-17Rc-ACT1-NFκB-Luc reporter cells (UniProt Q96F46); test: FACS on cells overexpressing IL-17RA and IL-17RC
[2] = molecular target: IL-17A重组蛋白 (Human IL-17A重组蛋白, C端6×His标签) (human, UniProt Q16552 24-155, limits assumed); test: cell-based or functional assay
[3] = molecular target: T1, Biotin-IL-17A-His (UniProt Q16552 24-155, biotinylated (Biotin-IL-17A-His; site not stated)); test: ELISA: antibody coated at 2 ug/mL, Biotin-IL-17A-His titrated from 10 ug/mL in 5-fold steps (7 points), HRP-streptavidin, OD450
T1 construct: also called 靶蛋白; not shown: His tag
T1 sequence (Q16552 24-155 limits assumed): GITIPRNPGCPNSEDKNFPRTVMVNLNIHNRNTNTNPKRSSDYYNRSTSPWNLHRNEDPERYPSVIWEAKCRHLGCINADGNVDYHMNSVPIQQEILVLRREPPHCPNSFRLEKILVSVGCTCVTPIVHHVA

Chain of IL-17A重组蛋白 (Human IL-17A重组蛋白, C端6×His标签) (human, UniProt Q16552 24-155, limits assumed) (Q16552 other isoform, or with tags, fused parts or gaps limits assumed): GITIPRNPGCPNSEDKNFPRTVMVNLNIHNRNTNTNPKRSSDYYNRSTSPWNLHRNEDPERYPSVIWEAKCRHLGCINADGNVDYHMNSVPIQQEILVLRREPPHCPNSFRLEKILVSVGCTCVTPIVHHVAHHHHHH

阳性率 [1]: > 90%
Molecule: IL-17A重组蛋白 (Human IL-17A重组蛋白, C端6×His标签) (from UniProt Q16552 24-155) (ligand)

IC50, 阻断Human IL-17A蛋白激活293F-IL-17RA-IL-17Rc-ACT1-NFκB-Luc (luciferase reporter) [2]: 0.759 µg/mL | EC50 [3]: 2.42 µg/mL
B1: 串联抗体G12-1-F8 (IL-17A特异性串联抗体) (Fc fusion)
chain: EVQLVESGGGLVQPGGSLRLSCVAWGFSFSIYSVNWYRQAPGKERELVAGITKGGLKDYADSVKGRFTISRDNAKNAVYLRMNMLKPEDTAVYYCNAGRENGYWGQGTQVAVSTGGGGSGGGGSGGGGSEVQLVESGGGLVQPGGSLRLSCAASGFSIHIYAMGWYRQAPGKQRELVATITRGGVTNNADSVKGRFTISRDNAKNTAYLQMNSLKPEDTAVYYCNAGGTNGGYWGQGTQVTVSS

IC50, 阻断Human IL-17A蛋白激活293F-IL-17RA-IL-17Rc-ACT1-NFκB-Luc (luciferase reporter) [2]: 1.36 µg/mL | EC50 [3]: 10.1 µg/mL
B2: Ixekizumab (阳性对照抗体) (antibody, human IgG4 S228P, kappa, V domains shown)
VH: QVQLVQSGAEVKKPGSSVKVSCKASGYSFTDYHIHWVRQAPGQGLEWMGVINPMYGTTDYNQRFKGRVTITADESTSTAYMELSSLRSEDTAVYYCARYDYFTGTGVYWGQGTLVTVSS
VL: DIVMTQTPLSLSVTPGQPASISCRSSRSLVHSRGNTYLHWYLQKPGQSPQLLIYKVSNRFIGVPDRFSGSGSGTDFTLKISRVEAEDVGVYYCSQSTHLPFTFGQGTKLEIKR
notes: Made in house from the variable regions cloned into pcDNA3.4-hIgG4 and pcDNA3.4-hIgKc vectors; also called 对照抗体Ixekizumab; 阳性抗体
